Assay results from US11278600B2, “Human alpha-galactosidase variants” (Codexis, Inc., priority 2014, dated 2022).

Key:
Type in all cases: biochemical
[1] = HTP-analysis of yeast culture supernatants, no challenge (MUGal hydrolysis); settings: activity of the variant/activity of Rd7BB (SEQ ID NO: 44)
How it was run: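 Activity read as 4-methylumbelliferyl α-D-galactopyranoside hydrolysis: fluorescence (355/448 nm) after sodium carbonate stop, following 30-180 min at 37° C with 2 mM MUGal stock at pH 4.6–4.8. Enzyme source is unchallenged culture supernatant of INVSc1 yeast expressing GLA variants, grown 66-84 h at 30° C.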

[2] = HTP-analysis of supernatants pretreated with acid (MUGal hydrolysis); settings: activity of the variant/activity of Rd7BB (SEQ ID NO: 44); challenge at pH 3.5
How it was run: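 Fluorescence of MUGal hydrolysis (Ex. 355 nm, Em. 448 nm) is read after sodium carbonate quench. The enzyme source is INVSc1 yeast culture supernatant, first exposed to pH 3.3-4.3 McIlvaine buffer at 37° C. for 1-3 h, then reacted at pH 4.8 for 30-180 minutes.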

[3] = HTP-analysis of supernatants pretreated with base (MUGal hydrolysis); settings: activity of the variant/activity of Rd7BB (SEQ ID NO: 44); challenge at pH 7.5
How it was run: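 Fluorescence of released 4-MU (Ex 355 nm, Em 448 nm) after carbonate quench reports MUGal hydrolysis by GLA variants secreted from INVSc1 yeast. Before the acidic (pH 4.3-4.8) 30-180 min reaction at 37° C, supernatants had been pre-incubated at pH 7.0-9.7 for 1-18 h at 37° C.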

B1: 679 (protein)
chain: LDNGLARTPPMGWLHWERFMCNLDCQEEPDSCISEKLFEEMAERMVTEGWKDAGYEYLCIDDCWMAPQRDSEGRLQADPQRFPHGIRQLANHVHSKGLKLGIYADVGNKTCAGFPGSFGYYDIDAQTFADWGVDLLKFDGCYCDSLENLADGYKHMSLALNRTGRPIVYSCEWPLYMWPFQKPNYTEIRQYCNHWRNFADIDDSWASIKSILDWTSRNQERIVDVAGPGGWNDPDMLVIGNFGLSWDQQVTQMALWAIMAAPLFMSNDLRAISPQAKALLQDKDVIAINQDPLGKQGYQLRKGDLFEVWERPLSGDAWAVAIINRQEIGGPRSYTIPVASLGKGVACNPACFITQLLPVKRQLGFYNWTSRLKSHINPTGTVLLQLENTMQTSLKDLL
modifications: Synthetic Polypeptide sequence of Variant No. 679 of mature Human GLA
Relative Activity of GLA Variants After No Challenge (NC) [1]: + (>0.5 to 1.5 relative activity over Rd7BB (SEQ ID NO: 44))
Relative Activity of GLA Variants After Challenge at pH 3.5 [2]: + (>0.5 to 1.5 relative activity over Rd7BB (SEQ ID NO: 44))
Relative Activity of GLA Variants After Challenge at pH 7.5 [3]: + (>0.5 to 1.5 relative activity over Rd7BB (SEQ ID NO: 44))

B2: 683 (protein)
chain: LDNGLARTPTMGWLHWERFMCNLDCQEEPDSCISEKLFEEMADRMVTEGWKDAGYEYLCIDDCWMAPQRDSEGRLQADPQRFPHGIRQLANHVHSKGLKLGIYADVGNKTCAGFPGSFGYYDIDAQTFADWGVDLLKFDGCYCDSLENLADGYKHMSLALNRTGRPIVYSCEWPLYMWPFQKPNYTEIRQYCNHWRNFADIDDSWASIKSILDWTSRNQERIVDVAGPGGWNDPDMLVIGNFGLSPDQQVTQWALWAIMAAPLFMSNDLRAIDPQAKALLQDKDVIAINQDPLGKQGYQLRKGDNFEVWERPLSGDAWAVAIINRQEIGGPRSYTIPVASLGKGVACNPACFITQLLPVKRQLGFYNATSRLKSHINPTGTVLLQLENTMQTSLKDLL
modifications: Synthetic Polypeptide sequence of Variant No. 683 of mature Human GLA
Relative Activity of GLA Variants After No Challenge (NC) [1]: + (>0.5 to 1.5 relative activity over Rd7BB (SEQ ID NO: 44))
Relative Activity of GLA Variants After Challenge at pH 3.5 [2]: + (>0.5 to 1.5 relative activity over Rd7BB (SEQ ID NO: 44))
Relative Activity of GLA Variants After Challenge at pH 7.5 [3]: − (<0.5 relative activity to Rd7BB (SEQ ID NO: 44))

B3: 681 (protein)
chain: LDNGLAPTPTMGWLHWERFMCNLDCQEEPDSCISEKLFMEMAERMVTEGWKDAGYEYLCIDDCWMAPQRDSEGRLQADPQRFPHGIRQLANHVHSKGLKLGIYADVGNKTCAGFPGSFGYYDIDAQTFADWGVDLLKFDGCYCDSLENLADGYKHMSLALNRTGRPIVYSCEWPLYMWPFQKPNYTEIRQYCNHWRNFADIDDSWASIKSILDWTSRNQERIVDVAGPGGWNDPDMLVIGNFGLSWDQQVTQMALWAIMAAPLFMSNDLRAISPQAKALLQDKDVIAINQDPLGKQGYQLRKGDNFEVWERPLSGDAWAVAIINRQEIGGPRSYTIPVASLGKGVACNPACFITQLLPVKRQLGFYNWTSRLKSHINPTGTVLLQLENTMQTSLKDLL
modifications: Synthetic Polypeptide sequence of Variant No. 681 of mature Human GLA
Relative Activity of GLA Variants After No Challenge (NC) [1]: − (<0.5 relative activity to Rd7BB (SEQ ID NO: 44))
Relative Activity of GLA Variants After Challenge at pH 3.5 [2]: − (<0.5 relative activity to Rd7BB (SEQ ID NO: 44))
Relative Activity of GLA Variants After Challenge at pH 7.5 [3]: − (<0.5 relative activity to Rd7BB (SEQ ID NO: 44))

B4: 680 (protein)
chain: LDNGLARTPPMGWLHWERFMCNLDCQEEPDSCISEKLFEEMAERMVTEGWKDAGYEYLCIDDCWMAPQRDSEGRLQADPQRFPHGIRQLANHVHSKGLKLGIYADVGNKTCAGFPGSFGYYDIDAQTFADWGVDLLKFDGCYCDSLENLADGYKHMSLALNRTGRPIVYSCEWPLYMWPFQKPNYTEIRQYCNHWRNFADIDDSWASIKSILDWTSRNQERIVDVAGPGGWNDPDMLVIGNFGLSWDQQVTQMALWAIMAAPLFMSNDLRAISPQAKALLQDKDVIAINQDPLGKQGYQLRKGDNFEVWERPLSGDAWAVAIINRQEIGGPRSYTIPVASLGKGVACNPACFITQLLPVKRQLGFYNWTSRLKSHINPTGTVLLQLENTMQTSLKDLL
modifications: Synthetic Polypeptide sequence of Variant No. 680 of mature Human GLA
Relative Activity of GLA Variants After No Challenge (NC) [1]: + (>0.5 to 1.5 relative activity over Rd7BB (SEQ ID NO: 44))
Relative Activity of GLA Variants After Challenge at pH 3.5 [2]: + (>0.5 to 1.5 relative activity over Rd7BB (SEQ ID NO: 44))
Relative Activity of GLA Variants After Challenge at pH 7.5 [3]: + (>0.5 to 1.5 relative activity over Rd7BB (SEQ ID NO: 44))

B5: 682 (protein)
chain: LDNGLARTPTMGWLHWERFMCNLDCQEEPDSCISEKLFMEMAERMVTEGWKDAGYEYLCIDDCWMAPQRDSEGRLQADPQRFPHGIRQLANHVHSKGLKLGIYADVGNKTCAGFPGSFGYYDIDAQTFADWGVDLLKFDGCYCDSLENLADGYKHMSLALNRTGRPIVYSCEWPLYMWPFQKPNYTEIRQYCNHWRNFADIDDSWASIKSILDWTSRNQERIVDVAGPGGWNDPDMLVIGNFGLSWDQQVTQMALWAIMAAPLFMSNDLRAISPQAKALLQDKDVIAINQDPLGKQGYQLRKGDNFEVWERPLSGYAWAVAIINRQEIGGPRSYTIPVASLGKGVACNPACFITQLLPVKRQLGFYNWTSRLKSHINPTGTVLLQLENTMQTSLKDLL
modifications: Synthetic Polypeptide sequence of Variant No. 682 of mature Human GLA
Relative Activity of GLA Variants After No Challenge (NC) [1]: + (>0.5 to 1.5 relative activity over Rd7BB (SEQ ID NO: 44))
Relative Activity of GLA Variants After Challenge at pH 3.5 [2]: + (>0.5 to 1.5 relative activity over Rd7BB (SEQ ID NO: 44))
Relative Activity of GLA Variants After Challenge at pH 7.5 [3]: + (>0.5 to 1.5 relative activity over Rd7BB (SEQ ID NO: 44))

B6: 684 (protein)
chain: LDNGLARTPTMGWLHWERFMCNLDCQEEPDSCISEKLFMEMAERMVTEGWKDAGYEYLCIDDCWMAPQRDSEGRLQADPQRFPHGIRQLANHVHSKGLKLGIYADVGNKTCAGFPGSFGYYDIDAQTFADWGVDLLKFDGCYCDSLENLADGYKHMSLALNRTGRPIVYSCEWPLYMWPFQKPNYTEIRQYCNHWRNFADIDDSWASIKSILDWTSRNQERIVDVAGPGGWNDPDMLVIGNFGLSWDQQVTQMALWAIMAAPLFMSNDLRAISPQAKALLQDKDVIAINQDPLGKQGYQLRKGDNFEVWERPLSGDAWAVAIINRQEIGGPRSYTIPVASLGKGVACNPACFITQLLPVKRQLGFYNATSRLKSHINPTGTVLLQLENTMQTSLKDLL
modifications: Synthetic Polypeptide sequence of Variant No. 684 of mature Human GLA
Relative Activity of GLA Variants After No Challenge (NC) [1]: + (>0.5 to 1.5 relative activity over Rd7BB (SEQ ID NO: 44))
Relative Activity of GLA Variants After Challenge at pH 3.5 [2]: + (>0.5 to 1.5 relative activity over Rd7BB (SEQ ID NO: 44))
Relative Activity of GLA Variants After Challenge at pH 7.5 [3]: + (>0.5 to 1.5 relative activity over Rd7BB (SEQ ID NO: 44))

B7: 685 (protein)
chain: LDNGLARTPTMGWLHWERFMCNLDCQEEPDSCISEKLFMEMADRMVTEGWKDAGYEYLCIDDCWMAPQRDSEGRLQADPQRFPHGIRQLANHVHSKGLKLGIYADVGNKTCAGFPGSFGYYDIDAQTFADWGVDLLKFDGCYCDSLENLADGYKHMSLALNRTGRPIVYSCEWPLYMWPFQKPNYTEIRQYCNHWRNFADIDDSWASIKSILDWTSRNQERIVDVAGPGGWNDPDMLVIGNFGLSWDQQVTQWALWGIMAAPLFMSNDLRAISPQAKALLQDKDVIAINQDPLGKQGYQLRKGDLFEVWERPLSGDAWAVAIINRQEIGGPRSYTIPVASLGKGVACNPACFITQLLPVKRQLGFYNATSRLKSHINPTGTVLLQLENTMQTSLKDLL
modifications: Synthetic Polypeptide sequence of Variant No. 685 of mature Human GLA
Relative Activity of GLA Variants After No Challenge (NC) [1]: + (>0.5 to 1.5 relative activity over Rd7BB (SEQ ID NO: 44))
Relative Activity of GLA Variants After Challenge at pH 3.5 [2]: − (<0.5 relative activity to Rd7BB (SEQ ID NO: 44))
Relative Activity of GLA Variants After Challenge at pH 7.5 [3]: − (<0.5 relative activity to Rd7BB (SEQ ID NO: 44))

B8: 641 (protein)
chain: LDNGLARTPPMGWLHWERFMCNLDCQEEPDSCISEKLFEEMAERMVTEGWKDAGYEYLCIDDCWMAPQRDSEGRLQADPQRFPHGIRQLANHVHSKGLKLGIYADVGNKTCAGFPGSFGYYDIDAQTFADWGVDLLKFDGCYCDSLENLADGYKHMSLALNRTGRPIVYSCEWPLYMWPFQKPNYTEIRQYCNHWRNFADIDDSWASIKSILDWTSRNQERIVDVAGPGGWNDPDMLVIGNFGLSWDQQVTQMALWAIMAAPLFMPNDLRAISPQAKALLQDKDVIAINQDPLGKQGYQLRKGDNFEVWERPLSGDAWAVAIINRQEIGGPRSYTIPVASLGKGVACNPACFITQLLPVKRQLGFYNWTSRLKSHINPTGTVLLQLENTMQTSLKDLL
modifications: Synthetic Polypeptide sequence of Variant No. 641 of mature Human GLA
Relative Activity of GLA Variants After No Challenge (NC) [1]: − (<0.5 relative activity to Rd7BB (SEQ ID NO: 44))
Relative Activity of GLA Variants After Challenge at pH 3.5 [2]: − (<0.5 relative activity to Rd7BB (SEQ ID NO: 44))
Relative Activity of GLA Variants After Challenge at pH 7.5 [3]: − (<0.5 relative activity to Rd7BB (SEQ ID NO: 44))
